Test results: patent US20240190985A1
pKd: −log10 of the molar value.

Columns and labels:
[1] = target: SUMO-CD99 fusion protein (SUMO fused with the extracellular domain of CD99, residues 23-122) (human) (UniProt P14209); assay: apparent affinity to the recombinant ECD of CD99; method not given, value compared with the bead-based values of FIG. 1F
[2] = target: CD99 endogenously expressed on cells (Jurkat, KOPT-K1) (UniProt P14209); assay: cell binding; apparent KD; nM Fv; avid
[3] = target: CD99 endogenously expressed on cells (Jurkat, KOPT-K1) (UniProt P14209); assay: cell binding; apparent KD; nM molecule; avid

Chain of CD99 endogenously expressed on cells (Jurkat, KOPT-K1) (P14209 23-185): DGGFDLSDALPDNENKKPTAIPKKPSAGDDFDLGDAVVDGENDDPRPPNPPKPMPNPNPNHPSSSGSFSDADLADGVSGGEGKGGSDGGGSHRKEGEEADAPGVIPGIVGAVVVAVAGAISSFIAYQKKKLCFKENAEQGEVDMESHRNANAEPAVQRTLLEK
Chain of SUMO-CD99 fusion protein (SUMO fused with the extracellular domain of CD99, residues 23-122) (human) (P14209 23-122): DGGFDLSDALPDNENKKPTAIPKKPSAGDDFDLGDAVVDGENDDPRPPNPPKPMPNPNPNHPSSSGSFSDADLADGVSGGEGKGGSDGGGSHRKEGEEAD

| Substance | pKd [1] | pKd [2] | pKd [3] |
| --- | --- | --- | --- |
| anti-CD99 mouse IgM, HO36-1.1 (ab212605, Abcam) (antibody) | 6.65 |  |  |
| bivalent SAV-10A1 Fab complex (A2D2 streptavidin with biotinylated 10A1 Fab) (from UniProt P22629 37-163; P22629 37-163) |  | 8.28 | 8.59 |
| trivalent SAV-10A1 Fab complex (A3D1 streptavidin with biotinylated 10A1 Fab) (from UniProt P22629 37-163; P22629 37-163) |  | 8.41 | 8.89 |
